The assay has as its target T1, FGFR4 expressed on cells (L6-FGFR4 myoblasts; ZR-75-1 breast cancer cells) (UniProt P22455 22-802, limits assumed).
T1 construct: whole, on cells; also called L6-FGFR4 cells; FGFR4-transfected L6 myoblasts
The assay can be described thus: FACS Scatchard on L6-FGFR4 cells, anti-rat-PE detection. The method, then: L6-FGFR4 cells were harvested by incubation with 10 mM EDTA in PBS and resuspended at 6 million cells per ml in FACS buffer (PBS pH 7.4, 3% FCS, 0.1% NaN₃). In a round-bottom microtiter plate, 100 μl of cell suspension were added to 100 μl of antibody solution containing antibodies 10F10 or 9A5 at concentrations between 31.25 and 0.01 μg/ml in FACS buffer. Antibody binding was allowed to proceed for 2 hours ice. Then, cells were washed twice with 250 μl FACS buffer per well, and resuspended in 200 μl of secondary antibody (anti-rat-PE; Jackson), diluted 1:50 in FACS buffer. After 45 minutes of incubation, cells were again washed twice in FACS buffer, then resuspended in […] of PBS for FACS analysis. Analysis was carried out on a Beckman-Coulter FACS. To determine the apparent affinity constant KDapp, mean fluorescence values were plotted against the ratio of mean fluorescence and the corresponding antibody contration ([M]). The calculated KDapp resulted from the inverse slope of the straight line (FIG. 2).

T1 sequence (P22455 22-802 limits assumed): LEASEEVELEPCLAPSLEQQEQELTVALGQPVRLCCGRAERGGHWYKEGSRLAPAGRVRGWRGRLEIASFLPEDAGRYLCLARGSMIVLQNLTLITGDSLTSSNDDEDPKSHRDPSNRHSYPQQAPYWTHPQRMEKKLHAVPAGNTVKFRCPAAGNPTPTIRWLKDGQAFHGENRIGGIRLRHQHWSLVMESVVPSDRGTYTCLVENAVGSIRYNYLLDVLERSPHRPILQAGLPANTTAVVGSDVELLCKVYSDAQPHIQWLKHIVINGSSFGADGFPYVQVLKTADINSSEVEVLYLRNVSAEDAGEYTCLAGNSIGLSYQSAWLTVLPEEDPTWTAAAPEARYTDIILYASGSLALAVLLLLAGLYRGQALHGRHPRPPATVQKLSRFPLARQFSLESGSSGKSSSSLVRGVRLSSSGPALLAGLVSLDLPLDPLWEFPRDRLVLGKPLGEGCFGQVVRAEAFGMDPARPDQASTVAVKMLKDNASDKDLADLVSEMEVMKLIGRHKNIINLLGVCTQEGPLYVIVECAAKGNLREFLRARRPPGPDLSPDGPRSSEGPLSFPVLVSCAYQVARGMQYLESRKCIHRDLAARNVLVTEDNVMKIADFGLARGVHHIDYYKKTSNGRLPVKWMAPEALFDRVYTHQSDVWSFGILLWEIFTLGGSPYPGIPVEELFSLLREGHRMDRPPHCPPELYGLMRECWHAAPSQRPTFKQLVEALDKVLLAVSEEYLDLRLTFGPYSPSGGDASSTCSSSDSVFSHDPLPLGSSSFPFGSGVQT

B1: anti-FGFR4 antibody 10F10 (antibody, V domains shown)
VH: EVQLKESGPGLVQPSQTLSLTCTVSGFSLTDYSVHWVRQPPGKGLEWMGVVWSSGSTAYNSALKSRLRITRDTSKSQAFLKMNSLQTEDTAIYYCTRPRYSSWFVYWGQGTLVTVSS
VL: DTVLTQSPALAVSLGQRVTISCRASKSVSTFIHWYQQKSGQQPKLLIYSASNTESGPSRFSGSGSGTDFTLTIDPVEADDIANYYCQQSNELPWTFGGGTKLELKR
notes: Rat monoclonal antibody from a hybridoma (rats immunised with FGFR4-ECD-GST)
In the case of B1, the binding result is “binds”.

B2: anti-FGFR4 antibody 9A5 (antibody, V domains shown)
VH: QVQLRESGPGLVQPSQTLSLTCTVSGFSLTFYHVSWVRQPPGKGLEWMGVIWTGGSTTYNSLLKSRLTISRDTSKSQVFLKMNSLQTEDTATYYCARGGGDRGYFAFWGPGTMVTVSS
VL: NTVMTQSPTSMFTSVGDRVTMSCKASQNVGINVGWYQQKTGQSPKRLIYWASNRDTGVPDRFTGSGSGTDFTLTISNMQAEDPAIYYCLQHNSYPWTFGGGTKLELKR
notes: Rat monoclonal antibody from a hybridoma
In the case of B2, the binding result is given as “binds”.
